In US20210122826A1:

Assays:
[1] = target: Human CD209 (human) (UniProt Q9NNX6); assay: flow, Jurkat, 100 nM Ab
[2] = target: Human CD94 (human) (UniProt Q13241); assay: flow, Jurkat, 100 nM Ab
[3] = target: Human Clec10A (human) (UniProt Q8IUN9); assay: flow, Jurkat, 100 nM Ab
[4] = target: Human Clec12B (human) (UniProt Q2HXU8); assay: flow, Jurkat, 100 nM Ab
[5] = target: Human Clec4E (human) (UniProt Q9ULY5); assay: flow, Jurkat, 100 nM Ab
[6] = target: Human Clec5A (human) (UniProt Q9NY25); assay: flow, Jurkat, 100 nM Ab
Chain of Human Clec5A (human) (Q9NY25 whole entry): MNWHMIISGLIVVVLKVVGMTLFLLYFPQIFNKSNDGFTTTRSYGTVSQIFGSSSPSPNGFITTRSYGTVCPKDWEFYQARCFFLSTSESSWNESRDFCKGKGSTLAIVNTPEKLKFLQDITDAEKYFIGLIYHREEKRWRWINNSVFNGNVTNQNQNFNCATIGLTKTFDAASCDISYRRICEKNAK

[7] = target: Human Clec7A (human) (UniProt Q9BXN2); assay: flow, Jurkat, 100 nM Ab
Chain of Human Clec7A (human) (Q9BXN2 whole entry): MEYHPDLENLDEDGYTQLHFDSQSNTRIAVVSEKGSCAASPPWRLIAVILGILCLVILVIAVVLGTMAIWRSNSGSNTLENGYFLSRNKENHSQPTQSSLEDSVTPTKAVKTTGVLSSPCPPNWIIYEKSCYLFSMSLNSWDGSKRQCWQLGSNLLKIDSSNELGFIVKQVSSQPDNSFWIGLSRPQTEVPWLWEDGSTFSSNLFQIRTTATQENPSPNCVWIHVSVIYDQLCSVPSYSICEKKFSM

[8] = target: Human Clec9A (human) (UniProt Q6UXN8); assay: flow, Jurkat, 100 nM Ab
Chain of Human Clec9A (human) (Q6UXN8 whole entry): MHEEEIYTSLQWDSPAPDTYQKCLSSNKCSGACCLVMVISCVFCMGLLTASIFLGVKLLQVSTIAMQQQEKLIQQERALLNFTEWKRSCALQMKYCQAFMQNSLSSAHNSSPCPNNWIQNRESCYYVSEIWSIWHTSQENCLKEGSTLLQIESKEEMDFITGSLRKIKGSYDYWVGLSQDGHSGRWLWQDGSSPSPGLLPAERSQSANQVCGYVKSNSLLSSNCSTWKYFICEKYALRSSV

[9] = target: Human KLRF1 (human) (UniProt Q9NZS2); assay: flow, Jurkat, 100 nM Ab
Chain of Human KLRF1 (human) (Q9NZS2 whole entry): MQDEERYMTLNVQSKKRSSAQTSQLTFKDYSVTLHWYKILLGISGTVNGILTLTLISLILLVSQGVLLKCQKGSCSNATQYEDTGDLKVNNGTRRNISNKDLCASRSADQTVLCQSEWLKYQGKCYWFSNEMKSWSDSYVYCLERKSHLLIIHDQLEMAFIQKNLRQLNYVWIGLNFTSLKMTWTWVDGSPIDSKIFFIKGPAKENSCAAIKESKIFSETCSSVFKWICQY

[10] = target: Human KLRF2 (human) (UniProt D3W0D1); assay: flow, Jurkat, 100 nM Ab
Chain of Human KLRF2 (human) (D3W0D1 whole entry): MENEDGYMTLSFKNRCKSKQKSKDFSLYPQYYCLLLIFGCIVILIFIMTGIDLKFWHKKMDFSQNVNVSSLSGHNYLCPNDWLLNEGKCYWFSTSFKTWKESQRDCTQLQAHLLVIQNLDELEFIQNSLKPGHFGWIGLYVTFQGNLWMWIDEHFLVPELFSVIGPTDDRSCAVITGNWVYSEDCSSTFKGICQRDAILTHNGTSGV

[11] = target: Human KLRG1 (human) (UniProt Q96E93); assay: flow, Jurkat, 100 nM Ab
Chain of Human KLRG1 (human) (Q96E93 whole entry): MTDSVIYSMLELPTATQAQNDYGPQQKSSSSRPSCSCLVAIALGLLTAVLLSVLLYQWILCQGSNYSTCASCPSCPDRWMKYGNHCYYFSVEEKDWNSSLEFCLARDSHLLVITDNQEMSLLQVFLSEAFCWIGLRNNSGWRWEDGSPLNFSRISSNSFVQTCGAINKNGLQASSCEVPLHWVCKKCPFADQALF

[12] = target: Human OLR1 (human) (UniProt P78380); assay: flow, Jurkat, 100 nM Ab
[13] = target: cynomolgus CD161 (cynomolgus); assay: flow, Jurkat, 100 nM Ab
Chain of cynomolgus CD161 (cynomolgus) (chain, as listed by the source limits assumed): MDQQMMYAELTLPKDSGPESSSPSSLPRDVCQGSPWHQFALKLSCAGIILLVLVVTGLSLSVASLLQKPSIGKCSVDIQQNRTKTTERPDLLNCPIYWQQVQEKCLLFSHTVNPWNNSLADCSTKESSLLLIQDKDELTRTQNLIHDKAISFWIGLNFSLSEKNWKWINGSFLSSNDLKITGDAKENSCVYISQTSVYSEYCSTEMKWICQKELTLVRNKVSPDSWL

[14] = target: human CD161 (human) (UniProt Q12918); assay: flow, Jurkat, 100 nM Ab
[15] = target: cynomolgus CD161 (cynomolgus); assay: flow, Jurkat, Ab titration
[16] = target: human CD161 (human) (UniProt Q12918); assay: flow, Jurkat, Ab titration
[17] = target: human CD161 (human) (UniProt Q12918); assay: flow cytometry titration of antibody on Jurkat hCD161+ cells, fluorescent secondary antibody, MFI against Ab concentration (log [M])
[18] = target: cynomolgus CD161 (cynomolgus); assay: flow cytometry titration of antibody on Jurkat cynoCD161+ cells, fluorescent secondary antibody, MFI against concentration (log [M])

Chain of Human CD209 (human) (Q9NNX6 whole entry): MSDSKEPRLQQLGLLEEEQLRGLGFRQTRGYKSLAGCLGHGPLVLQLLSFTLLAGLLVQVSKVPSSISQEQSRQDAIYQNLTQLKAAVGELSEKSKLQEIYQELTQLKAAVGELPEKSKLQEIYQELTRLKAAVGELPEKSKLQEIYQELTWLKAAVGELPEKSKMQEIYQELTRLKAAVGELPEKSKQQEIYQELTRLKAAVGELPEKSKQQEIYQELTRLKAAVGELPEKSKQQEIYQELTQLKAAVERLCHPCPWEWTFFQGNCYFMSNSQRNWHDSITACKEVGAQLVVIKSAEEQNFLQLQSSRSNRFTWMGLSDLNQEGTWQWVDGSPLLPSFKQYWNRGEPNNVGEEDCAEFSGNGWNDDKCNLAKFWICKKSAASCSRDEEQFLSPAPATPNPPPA
Chain of Human CD94 (human) (Q13241 whole entry): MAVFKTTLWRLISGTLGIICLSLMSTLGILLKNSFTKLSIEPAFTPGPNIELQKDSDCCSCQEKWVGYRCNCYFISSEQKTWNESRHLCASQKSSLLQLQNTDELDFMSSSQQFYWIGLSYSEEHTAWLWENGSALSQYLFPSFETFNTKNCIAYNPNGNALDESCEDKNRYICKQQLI
Chain of Human Clec4E (human) (Q9ULY5 whole entry): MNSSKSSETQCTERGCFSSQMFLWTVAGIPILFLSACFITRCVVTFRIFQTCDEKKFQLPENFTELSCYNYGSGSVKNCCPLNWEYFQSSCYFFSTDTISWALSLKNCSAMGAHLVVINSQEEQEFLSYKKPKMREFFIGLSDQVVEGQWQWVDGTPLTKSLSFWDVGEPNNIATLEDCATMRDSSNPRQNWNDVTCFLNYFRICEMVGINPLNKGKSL
Chain of Human Clec10A (human) (Q8IUN9 whole entry): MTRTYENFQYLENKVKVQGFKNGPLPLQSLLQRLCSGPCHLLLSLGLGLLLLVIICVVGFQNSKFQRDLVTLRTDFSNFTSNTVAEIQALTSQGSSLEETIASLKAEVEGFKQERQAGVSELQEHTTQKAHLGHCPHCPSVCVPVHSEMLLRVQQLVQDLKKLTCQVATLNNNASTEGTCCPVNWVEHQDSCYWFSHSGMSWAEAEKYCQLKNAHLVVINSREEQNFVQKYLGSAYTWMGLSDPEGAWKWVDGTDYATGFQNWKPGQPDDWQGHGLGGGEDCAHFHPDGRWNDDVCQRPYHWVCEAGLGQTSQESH
Chain of Human Clec12B (human) (Q2HXU8 whole entry): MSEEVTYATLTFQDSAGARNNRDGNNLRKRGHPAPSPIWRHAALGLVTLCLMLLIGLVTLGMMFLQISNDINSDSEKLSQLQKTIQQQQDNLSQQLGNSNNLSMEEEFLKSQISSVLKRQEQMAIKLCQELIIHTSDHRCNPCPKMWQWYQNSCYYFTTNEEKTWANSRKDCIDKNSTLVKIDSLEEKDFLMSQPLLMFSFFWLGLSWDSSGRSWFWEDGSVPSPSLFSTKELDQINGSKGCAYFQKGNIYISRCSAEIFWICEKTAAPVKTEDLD

mouse anti-human CD161 antibody HP-3G10
MFI normalized to WT [1]: 1.01
MFI normalized to WT [2]: 1
MFI normalized to WT [3]: 1
MFI normalized to WT [4]: 1.1
MFI normalized to WT [5]: 1
MFI normalized to WT [6]: 1.08
MFI normalized to WT [7]: 1.16
MFI normalized to WT [8]: 1.09
MFI normalized to WT [9]: 0.94
MFI normalized to WT [10]: 1.07
MFI normalized to WT [11]: 1.07
MFI normalized to WT [12]: 1.01
MFI normalized to WT [13]: 46.7
MFI normalized to WT [14]: 75.2
Kd [15]: 1.18 nM
Kd [16]: 1.67 nM
EC50 (read off the curve) [17]: 2 nM
EC50 (read off the curve) [18]: 1 nM
